# Measurements reported in EP3108897A1 (F. Hoffmann-La Roche AG, dated 2016).
# How the values were obtained:
# [1] = target: human mutant CSF-1R L301S Y969F (full-length) (human) (UniProt P07333); assay: cell-based or functional assay
# [2] = target: human wildtype CSF-1R (full-length) (human, UniProt P07333 20-972); assay: cell-based or functional assay
substance,measurement,setting,value
"Anti CSF-1R SC 2-4A5 (Santa Cruz Biotechnology, US) (antibody)","Mutant CSF-1R IC30 (CellTiterGlo viability of NIH3T3-mutant CSF-1R spheroids, 3 days)",[1],2.56 µg/mL
same,IC50 CSF-1R Phosphorylation (phospho/total CSF-1R ELISA on lysates of NIH3T3-CSF-1R cells stimulated with hu CSF-1),[2],1010 ng/mL
same,"wtCSF-1R IC30 (CellTiterGlo viability of NIH3T3-wtCSF-1R spheroids, 3 days)",[2],16.6 µg/mL
goat polyclonal anti-CSF-1R antibody ab10676 (abcam),% inhibition of cell viability at 20 µg/ml (NIH3T3-mutant CSF-1R spheroids),[1],0%
same,"Mutant CSF-1R IC30 (CellTiterGlo viability of NIH3T3-mutant CSF-1R spheroids, 3 days)",[1],> 20 µg/mL
same,"wtCSF-1R IC30 (CellTiterGlo viability of NIH3T3-wtCSF-1R spheroids, 3 days)",[2],14.2 µg/mL
